{"source": "paper PMC12274814", "about": "“ATPase-dependent duplex nucleic acid unwinding by SARS-CoV-2 nsP13 relies on facile binding and translocation along single-stranded nucleic acid”", "conditions_in_all_cases": "protein: recombinant; chain copies: 2; single strand 25 nt", "key": {"nsP13 helicase [1]": {"molecular_target": "T1, nsP13 helicase (SARS-CoV-2, UniProt P0DTD1 5325-5925)", "assay": "competition, 500 nM ssDNA-F, 30 nM nsP13; 3 mM ATP, 5 mM Mg2+; K1/2 of TrapDNA"}, "nsP13 helicase [2]": {"molecular_target": "T1, nsP13 helicase", "assay": "competition, 500 nM ssDNA-F, 30 nM nsP13"}, "nsP13 helicase [3]": {"molecular_target": "T1, nsP13 helicase", "assay": "competition, 500 nM ssDNA-F, 30 nM nsP13; 3 mM ATPgS, 5 mM Mg2+; K1/2 of TrapDNA"}}, "data": [{"binder": "TCTAATGTAGTATAGTAATCCGCTC (ssDNA)", "note": "[TrapDNA]", "values": [{"measurement": "IC50", "setting": "nsP13 helicase [1]", "value": 950, "unit": "nM"}, {"measurement": "IC50", "setting": "nsP13 helicase [2]", "value": 460, "unit": "nM"}, {"measurement": "IC50", "setting": "nsP13 helicase [3]", "value": 3100, "unit": "nM"}]}]}
